What was measured:
[1] = target: T1, human EGFR (wild type) on cells (human, UniProt P00533 25-1210); test: flow cytometry, NCI-H292 cells
T1 construct: whole, on cells; also called EGFRwt

cynomolgus monkey CD16a = target: T2, cynomolgus monkey CD16a (cynomolgus monkey, UniProt Q8SPW2 17-208, limits assumed); test: SPR
T2 construct: also called cynomolgus monkey FcγRIIIa

[2] = target: T1, human EGFR (wild type) on cells; test: cell-based or functional assay
[3] = target: T3, human EGFR T790M, L858R on NCI-H1975 cells (human, UniProt P00533 25-1210); test: cell-based or functional assay
[4] = target: T4, cynomolgus monkey NKG2D on NK cells (cynomolgus monkey, UniProt P61252 1-216); test: cell-based or functional assay
T4 sequence (looked up): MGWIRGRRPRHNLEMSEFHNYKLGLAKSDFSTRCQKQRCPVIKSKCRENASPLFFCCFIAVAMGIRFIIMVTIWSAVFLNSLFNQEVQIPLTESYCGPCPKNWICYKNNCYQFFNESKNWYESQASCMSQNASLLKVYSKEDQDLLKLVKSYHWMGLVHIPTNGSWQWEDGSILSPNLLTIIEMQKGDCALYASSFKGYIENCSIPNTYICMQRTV

[5] = target: T1, human EGFR (wild type) on cells; test: cell-based or functional assay; remark: listed apart in the source
[6] = target: T3, human EGFR T790M, L858R on NCI-H1975 …; test: cell-based or functional assay; remark: listed apart in the source
[7] = target: T1, human EGFR (wild type) on cells; test: flow cytometry, 786-O cells
[8] = target: T5, purified recombinant human NKG2D (human, UniProt P26718 78-216, limits assumed); test: SPR (Biacore 8K), 25 C
T5 sequence (looked up): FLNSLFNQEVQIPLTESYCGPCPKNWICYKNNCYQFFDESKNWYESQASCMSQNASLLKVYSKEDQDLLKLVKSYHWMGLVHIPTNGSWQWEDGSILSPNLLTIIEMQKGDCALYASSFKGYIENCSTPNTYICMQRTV

[9] = target: T6, cynomolgus monkey EGFR on primary cynomolgus monkey esophageal epithelial cells (cynomolgus monkey, UniProt A0A2K5WK39 25-1210); test: flow cytometry on primary cynomolgus monkey esophageal epithelial cells, anti-human Fc-PE secondary
T6 construct: whole, on cells; also called cynomolgus monkey EGFR-expressing cells

[10] = target: T1, human EGFR (wild type) on cells; test: flow cytometry, KYSE-30 cells
[11] = target: T1, human EGFR (wild type) on cells; test: flow cytometry, Detroit 562 cells
[12] = target: T1, human EGFR (wild type) on cells; test: flow cytometry, BT474 cells
[13] = target: T7, purified recombinant human FcRn (human, UniProt P55899 24-297; P61769 21-119); test: SPR (Biacore 8K), 25 C, pH 6.0; pH 6.0
T7 construct: also called neonatal Fc receptor

[14] = target: T1, human EGFR (wild type) on cells; test: flow cytometry, NCI-H1703 cells
[15] = target: T8, human EGFR L747-E749del, A750P on HCC4006 cells (human, UniProt P00533 25-1210); test: flow cytometry, HCC4006 cells
T8 construct: whole, on cells; The deletion L747-E749 cannot be written as a substitution; it stands under detail; also called EGFRmut L747-E749del, A750P

[16] = target: T9, purified recombinant human EGFR (human, UniProt P00533 25-645); test: SPR (Biacore 8K), 37 C
T9 construct: the whole entry is named; also called recombinant human epidermal growth factor receptor

[17] = target: T1, human EGFR (wild type) on cells; test: cell-based or functional assay; remark: listed apart in the source
[18] = target: T1, human EGFR (wild type) on cells; test: cell-based or functional assay; remark: listed apart in the source
[19] = target: T1, human EGFR (wild type) on cells; test: flow cytometry, MDA-MB-453 cells
[20] = target: T3, human EGFR T790M, L858R on NCI-H1975 …; test: flow cytometry, NCI-H1975 cells
cynomolgus monkey FcRn = cynomolgus monkey FcRn (cynomolgus monkey, UniProt Q8SPV9 24-297; Q8SPW0 21-119, limits assumed); test: SPR, pH 6.0; pH 6.0
human NKG2D on cells = target: T10, human NKG2D on cells (human, UniProt P26718 1-216); test: cell-based or functional assay
T10 sequence (looked up): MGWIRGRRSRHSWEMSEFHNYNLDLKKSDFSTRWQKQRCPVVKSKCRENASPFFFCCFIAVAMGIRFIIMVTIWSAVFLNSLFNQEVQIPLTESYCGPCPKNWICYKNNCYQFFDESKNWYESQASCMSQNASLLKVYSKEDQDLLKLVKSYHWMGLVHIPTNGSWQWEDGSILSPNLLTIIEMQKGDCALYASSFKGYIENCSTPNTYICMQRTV

B1: EGFR-TriNKET (bispecific antibody, human IgG1, kappa)
chain: DIQMTQSPSSLSASVGDRVTITCQASQDISNYLNWYQQKPGKAPKLLIYDASNLETGVPSRFSGSGSGTDFTFTISSLQPEDIATYYCQHFRHLPLAFGCGTKVEIKGGGGSGGGGSGGGGSGGGGSQVQLQESGPGLVKPSETLSLTCTVSGGSVSSGDYYWTWIRQSPGKCLEWIGHIYYSGNTNYNPRLKSRLTISIDTSKTQFSLKLSSVTAADTAIYYCVRDRVTGAFDIWGQGTMVTVSSGSDKTHTCPPCPAPELLGGPSVFLFPPKPKDTLMISRTPEVTCVVVDVSHEDPEVKFNWYVDGVEVHNAKTKPREEQYNSTYRVVSVLTVLHQDWLNGKEYKCKVSNKALPAPIEKTISKAKGQPREPRVYTLPPCRDELTKNQVSLTCLVKGFYPSDIAVEWESNGQPENNYKTTPPVLVSDGSFTLYSKLTVDKSRWQQGNVFSCSVMHEALHNHYTQKSLSLSPG
heavy: EVQLVESGGGLVKPGGSLRLSCAASGFTFSSYSMNWVRQAPGKGLEWVSSISSSSSYIYYADSVKGRFTISRDNAKNSLYLQMNSLRAEDTAVYYCARGAPIGAAAGWFDPWGQGTLVTVSSASTKGPSVFPLAPSSKSTSGGTAALGCLVKDYFPEPVTVSWNSGALTSGVHTFPAVLQSSGLYSLSSVVTVPSSSLGTQTYICNVNHKPSNTKVDKKVEPKSCDKTHTCPPCPAPELLGGPSVFLFPPKPKDTLMISRTPEVTCVVVDVSHEDPEVKFNWYVDGVEVHNAKTKPREEQYNSTYRVVSVLTVLHQDWLNGKEYKCKVSNKALPAPIEKTISKAKGQPREPQVCTLPPSRDELTENQVSLTCLVKGFYPSDIAVEWESNGQPENNYKTTPPVLDSDGSFFLYSWLTVDKSRWQQGNVFSCSVMHEALHNHYTQKSLSLSPG
light: DIQMTQSPSSVSASVGDRVTITCRASQGISSWLAWYQQKPGKAPKLLIYAASSLQSGVPSRFSGSGSGTDFTLTISSLQPEDFATYYCQQGVSFPRTFGGGTKVEIKRTVAAPSVFIFPPSDEQLKSGTASVVCLLNNFYPREAKVQWKVDNALQSGNSQESVTEQDSKDSTYSLSSTLTLSKADYEKHKVYACEVTHQGLSSPVTKSFNRGEC
notes: also called EGFR-TriNKET-3
- EC50 [1]: 5.3 nM
- Max FOB [1]: 800 fold over background
- Kd (cynomolgus monkey CD16a): 80.9 nM
- EC50, ADCP by M0 macrophages, 786-O [2]: 2.2 nM
- EC50, ADCP by M0 macrophages, NCI-H1975 [3]: 2.3 nM
- EC50, NK cell degranulation and cytokine production, cynomolgus monkey PBMCs with 786-O [4]: 0.023 nM
- EC50, NK cell degranulation and cytokine production, cynomolgus monkey PBMCs with NCI-H1975 [4]: 0.037 nM
- EC50, NK cell degranulation and cytokine production, human PBMCs with 786-O [5]: 0.089 nM
- EC50, NK cell degranulation and cytokine production, human PBMCs with NCI-H1975 [6]: 0.067 nM
- EC50 [7]: 3.5 nM
- Max FOB [7]: 330 fold over background
- Kd [8]: 482 nM
- koff [8]: 0.11 s⁻¹
- kon [8]: 230000 M⁻¹ s⁻¹
- EC50 [9]: 1.09 nM
- EC50 [10]: 11 nM
- Max FOB [10]: 1800 fold over background
- EC50 [11]: 1.6 nM
- Max FOB [11]: 490 fold over background
- EC50 [12]: 0.77 nM
- Max FOB [12]: 41 fold over background
- Kd [13]: 1000 nM
- EC50 [14]: 4.6 nM
- Max FOB [14]: 730 fold over background
- EC50 [15]: 1.8 nM
- Max FOB [15]: 160 fold over background
- fold weaker affinity than panitumumab [16]: 4.7 fold
- EC50, NK-dependent inhibition at 72 hours, HT29 tumor cells [17]: 0.063 nM
- EC50 of growth inhibition at 72 hours (IncuCyte), human primary keratinocytes, against cetuximab [18]: 60 fold
- EC50 of inhibition of EGF-induced EGFR phosphorylation (AlphaLISA), human primary keratinocytes [18]: 5.3 nM
- EC50 of tumor cell growth inhibition over 72 hours (IncuCyte), NCI-H292-NucLight Green or FaDu cells [18]: 1.7 to 3.9 nM
- EC50 [19]: 0.33 nM
- Max FOB [19]: 5 fold over background
- EC50 [20]: 2.3 nM
- Max FOB [20]: 170 fold over background
- Kd (cynomolgus monkey FcRn): 900 nM
- EC50, IFNγ release from NK cells (AlphaLISA) in the presence of HT29 cells (human NKG2D on cells): 1.6 nM
- EC50, IFNγ release from NK cells (AlphaLISA) in the presence of NCI-H1975 cells (human NKG2D on cells): 0.88 nM

Source: patent US20230250176A1 (DRAGONFLY THERAPEUTICS, published 2023)
